Experimental data published in PMC6684648.

Molecular target: human IGF2R extra-cellular domains 1-15 I1572A fused at the C-terminal to rat CD4 (domains 3 + 4), biotin acceptor domain and histidine tag (human) (UniProt P11717)
Assay: SPR; BIAcore T200; about 1800 RU of biotinylated CD4-IGF2R fusion protein immobilised on a CM5 chip loaded with streptavidin; IGF2 256 to 0.125 nM injected for 200 s, 25 °C, 40 μl/min, HBS-EP; 1:1 binding model and steady state analysis

Sequence of human IGF2R extra-cellular domains 1-15 I1572A fused at the C-terminal to rat CD4 (domains 3 + 4), biotin acceptor domain and histidine tag (human) (P11717 41-2304 I1572A): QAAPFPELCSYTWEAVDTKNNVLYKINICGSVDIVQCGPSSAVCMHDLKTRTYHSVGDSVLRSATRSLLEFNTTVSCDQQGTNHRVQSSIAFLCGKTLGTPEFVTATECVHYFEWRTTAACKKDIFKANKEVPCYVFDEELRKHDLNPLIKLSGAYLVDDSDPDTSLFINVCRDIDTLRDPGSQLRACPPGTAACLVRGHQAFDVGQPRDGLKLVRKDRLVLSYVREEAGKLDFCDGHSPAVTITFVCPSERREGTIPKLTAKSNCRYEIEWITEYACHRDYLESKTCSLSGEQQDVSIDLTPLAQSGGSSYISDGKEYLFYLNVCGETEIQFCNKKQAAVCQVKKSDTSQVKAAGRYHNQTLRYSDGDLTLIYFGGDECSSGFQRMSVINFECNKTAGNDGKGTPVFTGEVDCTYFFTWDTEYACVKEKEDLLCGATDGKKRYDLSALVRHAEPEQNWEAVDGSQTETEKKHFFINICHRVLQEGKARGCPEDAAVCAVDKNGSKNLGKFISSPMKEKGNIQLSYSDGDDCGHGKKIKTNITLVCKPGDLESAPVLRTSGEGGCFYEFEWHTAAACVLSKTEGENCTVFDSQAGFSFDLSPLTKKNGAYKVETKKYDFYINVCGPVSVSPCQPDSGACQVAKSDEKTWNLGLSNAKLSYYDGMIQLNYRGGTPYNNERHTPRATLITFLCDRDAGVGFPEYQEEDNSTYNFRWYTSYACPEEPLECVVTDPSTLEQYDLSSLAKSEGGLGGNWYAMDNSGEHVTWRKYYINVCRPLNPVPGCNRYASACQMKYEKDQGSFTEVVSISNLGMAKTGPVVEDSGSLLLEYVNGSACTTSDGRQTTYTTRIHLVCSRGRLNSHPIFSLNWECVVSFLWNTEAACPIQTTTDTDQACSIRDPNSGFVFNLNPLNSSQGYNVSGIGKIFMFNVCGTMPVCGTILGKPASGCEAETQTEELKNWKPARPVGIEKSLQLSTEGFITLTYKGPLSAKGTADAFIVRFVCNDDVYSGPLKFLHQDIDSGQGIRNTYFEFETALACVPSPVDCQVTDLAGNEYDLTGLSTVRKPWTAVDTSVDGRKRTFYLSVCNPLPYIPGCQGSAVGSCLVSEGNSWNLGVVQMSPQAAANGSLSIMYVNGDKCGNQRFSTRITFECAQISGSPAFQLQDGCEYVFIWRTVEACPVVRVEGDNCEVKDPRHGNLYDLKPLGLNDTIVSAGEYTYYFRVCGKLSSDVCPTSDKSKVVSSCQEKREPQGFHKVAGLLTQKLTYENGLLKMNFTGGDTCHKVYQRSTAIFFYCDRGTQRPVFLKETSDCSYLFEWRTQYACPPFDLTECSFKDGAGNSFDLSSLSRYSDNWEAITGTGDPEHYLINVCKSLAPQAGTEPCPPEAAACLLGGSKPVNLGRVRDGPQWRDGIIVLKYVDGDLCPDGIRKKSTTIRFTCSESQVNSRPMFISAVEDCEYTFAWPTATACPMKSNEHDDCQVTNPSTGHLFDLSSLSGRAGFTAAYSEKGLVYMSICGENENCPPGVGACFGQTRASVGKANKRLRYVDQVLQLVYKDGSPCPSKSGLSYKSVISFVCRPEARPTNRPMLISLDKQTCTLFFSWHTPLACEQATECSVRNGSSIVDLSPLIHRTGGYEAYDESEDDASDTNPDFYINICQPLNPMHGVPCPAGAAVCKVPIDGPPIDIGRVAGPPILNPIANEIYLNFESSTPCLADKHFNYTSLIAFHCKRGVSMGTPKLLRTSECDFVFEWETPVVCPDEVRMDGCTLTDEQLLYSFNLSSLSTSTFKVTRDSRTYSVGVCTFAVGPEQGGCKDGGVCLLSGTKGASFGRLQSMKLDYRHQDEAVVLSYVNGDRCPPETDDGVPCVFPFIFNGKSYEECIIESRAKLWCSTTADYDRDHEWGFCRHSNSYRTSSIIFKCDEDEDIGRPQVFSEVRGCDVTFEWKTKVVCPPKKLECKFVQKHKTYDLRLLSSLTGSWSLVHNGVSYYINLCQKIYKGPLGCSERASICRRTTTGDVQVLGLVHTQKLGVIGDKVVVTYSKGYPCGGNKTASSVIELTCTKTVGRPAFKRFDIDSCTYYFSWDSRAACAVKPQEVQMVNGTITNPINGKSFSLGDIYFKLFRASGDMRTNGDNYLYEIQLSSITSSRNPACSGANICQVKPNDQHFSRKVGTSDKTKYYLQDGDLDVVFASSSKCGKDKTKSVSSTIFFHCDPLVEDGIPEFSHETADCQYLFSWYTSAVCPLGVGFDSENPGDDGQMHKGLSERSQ

- fold reduction of IGF2 binding against wild type: 100 fold
Substance: human IGF2 (ligand)
